Measured values: patent US20210170043A1, “DC-SIGN ANTIBODY CONJUGATES COMPRISING STING AGONISTS” (NOVARTIS AG, priority 2018, published 2021)

Assays:
[1] = system: transgenic mice expressing human DC-SIGN gene (Tg+); assay: Plasma cytokine production in transgenic mice expressing human DC-SIGN (ELISA / MesoScaleDiscovery); assay type: in vivo, mouse
Procedure: FIGS. 5A-5E show exemplary data on DC-SIGN immunoconjugates inducing cytokine production in Tg+ mice. […] Plasma levels were analyzed by ELISA (IP-10 and IFNβ) or MesoScaleDiscovery Multiplex analysis (all other analytes). **** denotes p value of <0.0001 using an ANOVA with Tukey's test compared to Tg-2B2 hlgG1 DAPA C1 group.
Mice were bled 6 hours after dosing to collect plasma for analysis of circulating cytokine levels.

M2 macrophages = assay: Activation of human M2 macrophages (M2 moMacs) in vitro, flow cytometry; assay type: cell-based; conditions: 24 hours incubation
Procedure: Primary human monocytes were isolated from a leukapheresis using magnetic bead selection and frozen for storage in liquid nitrogen. For monocyte DC (moDC) differentiation, cells were thawed and incubated in media containing GM-CSF and IL-4 for 7 days. For M2 macrophages (M2 moMacs), cells were thawed and incubated for 6 days with M-CSF containing media and then polarized with the addition of IL-4 for 24 hours. After the differentiation process for both moDC and moMacs, media was washed off and replaced with fresh media containing isotype control (DAPA version of Trastuzumab) C1, or DC-SIGN antibody C1 conjugates. Free T1-1 compound was used as a control. 24 hours after incubation with indicated compounds, cells were evaluated by flow cytometry for activation.
Peripheral blood Leukopaks from normal human donors were obtained from HemaCare. […]
Human CD14+ monocytes were isolated and frozen as described. […] Cells were counted and plated at 40,000-80,000 cells per well in a 384 well flat bottom tissue culture plate (Greiner). […]
24 hours after activation with compounds, cells were evaluated by flow cytometry according to the described protocol using antibody clones described in flow cytometry protocol section. DC-SIGN+CD11c+ HLA-DR+ cells were identified and assessed for CD86 expression and levels of DC-SIGN.

[2] = system: transgenic mice expressing human DC-SIGN gene (Tg+); assay: Splenic dendritic cell activation in human DC-SIGN transgenic mice, flow cytometry; assay type: in vivo, mouse; conditions: 24 hours post dose
Procedure: Blood was collected at 6 hours post dose to analyze plasma cytokine and chemokine levels and spleens were analyzed at 24 hours post dose to look at dendritic cell activation.
Spleens were harvested 24 hours post dose and analyzed by flow cytometry to look at CD11c+ dendritic cells.
Tumors and/or spleens were extracted at the timepoints indicated from animals. Spleens were processed into a single cell suspension using glass slides and passed through a 100 micron mesh filter. Spleens were lysed in 1 mL of ACK lysis buffer (Life Technologies) for 5 minutes at room temperature. […]
1-2 million cells for each sample were then stained with a cocktail of antibodies to determine impact of the treatments on dendritic cells, myeloid cells and T cells. […] After staining, cells were evaluated on the BD LSRFortessa™ cell analyzer (BD Biosciences, San Jose, Calif.). […]

B1: 2B2 (DAPA) C1 (conjugate)
heavy: QVQLVQSGAEVKKPGASVKVSCKASGYTFTNYGINWVRQAPGQRLEWMGYIYIGNDYTEYNERFKGRVTITSDTSASTAYMELSSLRSEDTAVYYCARLYYGSSLYSYAMDYWGQGTTVTVSSASTKGPSVFPLAPSSKSTSGGTAALGCLVKDYFPCPVTVSWNSGALTSGVHTFPAVLQSSGLYSLSSVVTVPSSSLGTQTYICNVNHKPSNTKVDKRVEPKSCDKTHTCPPCPAPELLGGPSVFLFPPKPKDTLMISRTPEVTCVVVAVSHEDPEVKFNWYVDGVEVHNAKTKPREEQYNSTYRVVSVLTVLHQDWLNGKEYKCKVSNKALAAPIEKTISKAKGQPREPQVYTLPPSREEMTKNQVSLTCLVKGFYPCDIAVEWESNGQPENNYKTTPPVLDSDGSFFLYSKLTVDKSRWQQGNVFSCSVMHEALHNHYTQKSLSLSPGK
light: DIVMTQSPLSLPVTPGEPASISCRSSKSLLHSSGNTYLYWFLQKPGQSPQLLISRMSNLASGVPDRFSGSGSGTDFTLKISRVEAEDVGVYYCMQHLEYPYTFGGGTKVEIKRTVAAPSVFIFPPSDEQLKSGTASVVCLLNNFYPREAKVQWKVDNALQSGNSQESVTEQDSKDSTYSLSSTLTLSKADYEKHKVYACEVTHQGLSSPVTKSFNRGEC
- circulating plasma IL-12p70 [1]: increased
- circulating plasma IP-10 [1]: increased
- circulating plasma TNFα [1]: increased
- downregulation of DC-SIGN on macrophages (M2 macrophages): induced downregulation of DC-SIGN
- macrophage activation as measured by CD86 upregulation (M2 macrophages): induced monocyte dendritic cell and macrophage activation
- CD86 upregulation on splenic dendritic cells ([2]; 1 mg/kg i.v. (Fab2 1.33 mg/kg, Fab 1.3 mg/kg)): significantly upregulated
- CD80 upregulation on splenic dendritic cells ([2]; 1 mg/kg i.v.): significantly upregulated
